Data published in PMC12152161, “Molecular basis for assembly and activation of the Hook3 − KIF1C complex-dependent transport machinery” (EMBO Reports, 2025).

T1: full-length KIF1C(WT)−Flag−EGFP (UniProt O43896 1-1103)
T1 sequence (looked up): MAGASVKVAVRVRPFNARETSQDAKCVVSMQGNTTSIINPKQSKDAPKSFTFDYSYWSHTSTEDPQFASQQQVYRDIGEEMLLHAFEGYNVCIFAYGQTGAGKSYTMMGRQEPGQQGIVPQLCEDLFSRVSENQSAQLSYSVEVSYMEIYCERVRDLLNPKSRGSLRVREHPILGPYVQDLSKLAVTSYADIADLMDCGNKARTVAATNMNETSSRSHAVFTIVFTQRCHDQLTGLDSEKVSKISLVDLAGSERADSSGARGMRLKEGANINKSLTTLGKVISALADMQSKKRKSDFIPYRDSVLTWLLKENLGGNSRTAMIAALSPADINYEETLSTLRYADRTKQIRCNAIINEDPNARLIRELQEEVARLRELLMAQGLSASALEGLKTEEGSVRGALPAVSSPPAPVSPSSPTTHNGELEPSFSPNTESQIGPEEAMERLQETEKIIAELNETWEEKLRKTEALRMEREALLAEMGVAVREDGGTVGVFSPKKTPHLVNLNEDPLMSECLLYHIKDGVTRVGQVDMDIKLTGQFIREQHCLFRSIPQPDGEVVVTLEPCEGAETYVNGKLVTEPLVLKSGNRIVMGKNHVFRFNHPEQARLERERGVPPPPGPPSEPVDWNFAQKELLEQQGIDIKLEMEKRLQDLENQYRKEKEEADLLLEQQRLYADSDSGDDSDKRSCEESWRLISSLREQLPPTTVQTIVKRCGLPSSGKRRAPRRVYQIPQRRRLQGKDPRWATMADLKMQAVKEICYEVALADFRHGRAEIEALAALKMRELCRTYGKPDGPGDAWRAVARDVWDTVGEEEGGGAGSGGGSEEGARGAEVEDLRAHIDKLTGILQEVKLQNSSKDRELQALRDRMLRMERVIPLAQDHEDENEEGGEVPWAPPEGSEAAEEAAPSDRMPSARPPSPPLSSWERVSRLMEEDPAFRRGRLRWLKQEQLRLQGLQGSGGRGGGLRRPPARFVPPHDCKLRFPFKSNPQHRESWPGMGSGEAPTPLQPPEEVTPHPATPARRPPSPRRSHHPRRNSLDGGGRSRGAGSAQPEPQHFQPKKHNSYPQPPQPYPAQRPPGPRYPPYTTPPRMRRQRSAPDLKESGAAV

T2: His10 − MBP−Hook3(553–718) (UniProt Q86VS8 553-718)
T2 construct: source: E. coli BL21(DE3) RIL, purified (Ni-NTA, size-exclusion chromatography); not shown: His10, N-terminal, kept; MBP, N-terminal, kept
T2 sequence (looked up): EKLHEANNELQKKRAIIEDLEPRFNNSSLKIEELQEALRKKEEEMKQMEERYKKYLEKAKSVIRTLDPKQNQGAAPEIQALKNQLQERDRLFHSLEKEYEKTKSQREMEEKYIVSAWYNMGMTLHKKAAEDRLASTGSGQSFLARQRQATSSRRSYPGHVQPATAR

T3: His10 − MBP − PTPN21(19–308) (UniProt Q16825 19-308)
T3 construct: Tagged form used in native gels and ITC; also called PTPN21_(FERM); FERM domain of PTPN21; source: E. coli BL21(DE3) RIL, purified (Ni-NTA, size-exclusion chromatography); not shown: His10, N-terminal, kept; MBP, N-terminal, kept
T3 sequence (looked up): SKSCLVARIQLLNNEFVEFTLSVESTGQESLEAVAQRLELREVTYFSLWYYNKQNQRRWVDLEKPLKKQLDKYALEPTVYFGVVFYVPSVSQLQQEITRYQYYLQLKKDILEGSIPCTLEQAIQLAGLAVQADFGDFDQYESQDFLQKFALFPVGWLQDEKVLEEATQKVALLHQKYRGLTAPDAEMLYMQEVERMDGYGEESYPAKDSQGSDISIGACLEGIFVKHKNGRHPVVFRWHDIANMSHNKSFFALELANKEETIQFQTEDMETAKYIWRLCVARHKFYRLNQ

B1: full-length Hook3(WT)−Myc−FuRed (natural protein, UniProt Q86VS8 1-718, looked up)
chain: MFSVESLERAELCESLLTWIQTFNVDAPCQTVEDLTNGVVMAQVLQKIDPAYFDENWLNRIKTEVGDNWRLKISNLKKILKGILDYNHEILGQQINDFTLPDVNLIGEHSDAAELGRMLQLILGCAVNCEQKQEYIQAIMMMEESVQHVVMTAIQELMSKESPVSAGNDAYVDLDRQLKKTTEELNEALSAKEEIAQRCHELDMQVAALQEEKSSLLAENQVLMERLNQSDSIEDPNSPAGRRHLQLQTQLEQLQEETFRLEAAKDDYRIRCEELEKEISELRQQNDELTTLADEAQSLKDEIDVLRHSSDKVSKLEGQVESYKKKLEDLGDLRRQVKLLEEKNTMYMQNTVSLEEELRKANAARSQLETYKRQVVELQNRLSEESKKADKLDFEYKRLKEKVDSLQKEKDRLRTERDSLKETIEELRCVQAQEGQLTTQGLMPLGSQESSDSLAAEIVTPEIREKLIRLQHENKMLKLNQEGSDNEKIALLQSLLDDANLRKNELETENRLVNQRLLEVQSQVEELQKSLQDQGSKAEDSVLLKKKLEEHLEKLHEANNELQKKRAIIEDLEPRFNNSSLKIEELQEALRKKEEEMKQMEERYKKYLEKAKSVIRTLDPKQNQGAAPEIQALKNQLQERDRLFHSLEKEYEKTKSQREMEEKYIVSAWYNMGMTLHKKAAEDRLASTGSGQSFLARQRQATSSRRSYPGHVQPATAR
B2: His10 − MBP − KIF1C(714–809) (domain or fragment, UniProt O43896 714-809, looked up)
chain: PSSGKRRAPRRVYQIPQRRRLQGKDPRWATMADLKMQAVKEICYEVALADFRHGRAEIEALAALKMRELCRTYGKPDGPGDAWRAVARDVWDTVGE
notes: Tag kept, as named in the legends and methods of the native gel, ITC and SEC experiments; also called KIF1C_(H3BD); source: E. coli BL21(DE3) RIL, purified (Ni-NTA, size-exclusion chromatography); not shown: His10, N-terminal, kept; MBP, N-terminal, kept
B3: His10 − MBP−Hook3(553–624) (domain or fragment, UniProt Q86VS8 553-624, looked up)
chain: EKLHEANNELQKKRAIIEDLEPRFNNSSLKIEELQEALRKKEEEMKQMEERYKKYLEKAKSVIRTLDPKQNQ
notes: Tagged form used in native gels and ITC; also called Hook3CC3; source: E. coli BL21(DE3) RIL, purified (Ni-NTA, size-exclusion chromatography); not shown: His10, N-terminal, kept; MBP, N-terminal, kept
B4: Hook3(553–624) (domain or fragment, UniProt Q86VS8 553-624, looked up)
chain: B3 chain
notes: Untagged form used in the SEC replacement analysis and in the crystals; parallel coiled-coil homodimer in both crystal structures; A selenomethionine-substituted form was also made for the apo structure; also called Hook3CC3; source: E. coli BL21(DE3) RIL, purified (Ni-NTA, size-exclusion chromatography, tag removed with TEV protease); not shown: His10, N-terminal, cleaved; MBP, N-terminal, …

Legend:
[1] = target: T1, full-length KIF1C(WT)−Flag−EGFP; assay: cell-based or functional assay
[2] = target: T2, His10 − MBP−Hook3(553–718); assay: native gel or EMSA; His10−MBP-tagged recombinant proteins alone or mixed (10 µM; molar ratio 1:1), incubated 16 h at 4 °C, 10% native gel, 120 V for 2 h on ice, Coomassie staining; conditions: both partners purified
[3] = target: T3, His10 − MBP − PTPN21(19–308); assay: ITC; 0.8 mM His10−MBP−Hook3(553–624) or His10−MBP−PTPN21(19–308) titrated into 0.04 mM His10−MBP−KIF1C(714–809); 25 °C; 50 mM Tris-HCl pH 7.5, 500 mM NaCl, 3 mM β-mercaptoethanol; MicroCal VP-ITC; conditions: both partners purified
[4] = target: B2; assay: as above; conditions: both partners purified
[5] = target: the molecule itself; assay: crystal structure; Hook3(553–624) − KIF1C(714–809) complex, 30 mg/mL, sitting drop at 4 °C, 0.1 M sodium citrate/citric acid pH 5.5, 20% PEG 4000, 20% isopropanol; 3.0 Å

Binder: B1
- tail/cytoplasm ratio of Hook3−Myc−FuRed upon co-expression in RPE1 cells, 16 h post transfection [1]: 1.3 tail/cytoplasm ratio
- tail/cytoplasm ratio of KIF1C−Flag−EGFP upon co-expression in RPE1 cells, 16 h post transfection [1]: 3.6 tail/cytoplasm ratio

Binder: B2
- binding result [2]: binds
- Kd [3]: 5.15 µM

Binder: B3
- Kd [4]: 1580 nM

Binder: B4
- stoichiometry N [5]: 2
